Experimental data as given in article PMC4400149, “The Carboxy-Terminal Domain of Erb1 Is a Seven-Bladed ß-Propeller that Binds RNA” (PLoS ONE, 2015).

Key:
[1] = target: T1, ChErb1 432-801 (C-terminal seven-bladed beta-propeller) (Chaetomium thermophilum var. thermophilum) (UniProt G0SCK6); test: fluorescence titration (intrinsic Trp); conditions: apparent KD; emission at 315 nm; 1.5 uM protein; Fluorescence: 20 mM Hepes pH 7.5, 150 mM NaCl, 5% glycerol, 2 mM beta-mercaptoethanol, 25 C; bead pull-down: 50 mM Tris pH 8, 100 mM NaCl, 5 mM MgCl2, 3 mM …
T1 sequence: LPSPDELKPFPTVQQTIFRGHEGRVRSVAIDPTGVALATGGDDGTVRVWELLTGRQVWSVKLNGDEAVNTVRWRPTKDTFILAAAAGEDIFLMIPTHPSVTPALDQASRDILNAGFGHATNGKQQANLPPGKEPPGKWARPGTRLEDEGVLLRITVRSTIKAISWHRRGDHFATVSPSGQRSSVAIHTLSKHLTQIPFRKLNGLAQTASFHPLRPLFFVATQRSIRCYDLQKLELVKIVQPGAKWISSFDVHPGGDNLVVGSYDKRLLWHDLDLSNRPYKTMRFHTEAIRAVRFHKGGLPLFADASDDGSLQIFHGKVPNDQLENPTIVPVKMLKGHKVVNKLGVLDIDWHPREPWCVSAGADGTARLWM

[2] = target: T2, Erb1 (Eukaryotic Ribosome Biogenesis 1) from Saccharomyces cerevisiae (Saccharomyces cerevisiae, UniProt Q04660 1-807); test: SEC; purified Nop7 and Erb1 mixed in equimolar amounts, Superdex200 16/60 in SE buffer (20mM Hepes pH 7.5; 0.25M NaCl; 2 mM β-mercaptoethanol, 5% glycerol); fractions of the heterodimer collected; conditions: both partners purified
T2 construct: Erb1, Saccharomyces cerevisiae, cloned from genomic DNA; 807 residues; Vector pET28-NKI/LIC 6His/3C: N-terminal 6xHis tag followed by a 3C protease site; no cleavage of the tag is told; also called 6xHis-Erb1; source: E. coli BL21 Codon Plus, purified (IMAC, size exclusion chromatography)
T2 sequence (looked up): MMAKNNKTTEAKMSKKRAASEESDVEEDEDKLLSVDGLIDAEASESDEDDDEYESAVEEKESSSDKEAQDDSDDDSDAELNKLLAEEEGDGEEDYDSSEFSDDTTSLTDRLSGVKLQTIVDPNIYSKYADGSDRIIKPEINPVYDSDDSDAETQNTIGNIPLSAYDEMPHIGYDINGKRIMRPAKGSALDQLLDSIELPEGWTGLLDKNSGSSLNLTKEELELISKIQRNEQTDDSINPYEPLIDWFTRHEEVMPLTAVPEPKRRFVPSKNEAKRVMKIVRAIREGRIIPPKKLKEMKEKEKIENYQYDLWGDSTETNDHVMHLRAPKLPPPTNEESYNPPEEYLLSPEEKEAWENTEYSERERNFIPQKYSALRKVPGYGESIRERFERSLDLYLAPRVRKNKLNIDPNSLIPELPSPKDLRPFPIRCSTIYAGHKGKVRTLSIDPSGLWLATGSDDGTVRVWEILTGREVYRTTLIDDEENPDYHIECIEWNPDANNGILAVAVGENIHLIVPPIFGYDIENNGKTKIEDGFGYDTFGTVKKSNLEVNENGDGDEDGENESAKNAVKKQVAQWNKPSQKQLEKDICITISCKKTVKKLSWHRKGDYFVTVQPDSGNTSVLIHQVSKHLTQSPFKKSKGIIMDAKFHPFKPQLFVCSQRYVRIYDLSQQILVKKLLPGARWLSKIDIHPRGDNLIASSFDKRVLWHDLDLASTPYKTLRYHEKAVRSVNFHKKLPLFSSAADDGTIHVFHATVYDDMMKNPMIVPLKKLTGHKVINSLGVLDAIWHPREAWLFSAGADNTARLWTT

[3] = target: T3, ChErb1 432-801 (C-terminal seven-bladed beta-propeller) (Chaetomium thermophilum var. …, UniProt G0SCK6 432-801); test: BLI; Fluorescence: 20 mM Hepes pH 7.5, 150 mM NaCl, 5% glycerol, 2 mM beta-mercaptoethanol, 25 C; bead pull-down: 50 mM Tris pH 8, 100 mM NaCl, 5 mM MgCl2, 3 mM DTT, 0.1% Triton X-100, 0.1 mg/ml BSA, room temperature; BLI conditions not in material; conditions: protein: recombinant; tags: N-terminal 6xHis with 3C site (pET28-NKI/LIC 6His/3C); single strand
T3 sequence: T1 sequence

Q: How did the Kd [1] turn out when free poly(U) was run?
A: 3000 nM

B1: Nop7 from Saccharomyces cerevisiae (natural protein, UniProt P53261 1-605, looked up)
chain: MRIKKKNTRGNARNFITRSQAVRKLQVSLADFRRLCIFKGIYPREPRNKKKANKGSTAPTTFYYAKDIQYLMHEPVLAKFREHKTFARKLTRALGRGEVSSAKRLEENRDSYTLDHIIKERYPSFPDAIRDIDDALNMLFLFSNLPSTNQVSSKIINDAQKICNQWLAYVAKERLVRKVFVSIKGVYYQANIKGEEVRWLVPFKFPENIPSDVDFRIMLTFLEFYSTLLHFVLYKLYTDSGLIYPPKLDLKKDKIISGLSSYILESRQEDSLLKLDPTEIEEDVKVESLDASTLKSALNADEANTDETEKEEEQEKKQEKEQEKEQNEETELDTFEDNNKNKGDILIQPSKYDSPVASLFSAFVFYVSREVPIDILEFLILSCGGNVISEAAMDQIENKKDIDMSKVTHQIVDRPVLKNKVAGRTYIQPQWIFDCINKGELVPANKYLPGEALPPHLSPWGDAIGYDPTAPVEEGEEEESESESESEDQVEEEDQEVVAGEEDDDDDEELQAQKELELEAQGIKYSETSEADKDVNKSKNKKRKVDEEEEEKKLKMIMMSNKQKKLYKKMKYSNAKKEEQAENLKKKKKQIAKQKAKLNKLDSKK
notes: Nop7, Saccharomyces cerevisiae, cloned from genomic DNA; called full length Nop7 in the results; Vector pNIC28-Bsa4: N-terminal 6xHis tag followed by a TEV site; no cleavage of the tag is told; also called 6xHis-Nop7; source: E. coli BL21 Codon Plus, purified (IMAC, size exclusion chromatography)
Q: Does B1 bind [2]?
A: binds

Q: For UUUUUUUUUUUUUUU (ssRNA) [biotinylated poly(U) 15-mer], which Kd [3] is on record?
A: 170 nM
